We go through 94 variants from the supplement of paper PMC10567573.

First the molecules themselves.
B1: TEKT4 (parent)
chain: LREKLLEAEQSLRNLEDIHMSLEK
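Note: lentivirally expressed fusions sorted by FACS into six bins by GFP to DsRed ratio, PSI derived from sequencing read proportions per bin multiplied by bin number.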

In this data set the parent is B1. The data set is described as follows: protein stability index of a GFP-peptide fusion (GPS, HEK-293T) (PSI 1-6); higher = more stable. As to conditions: c terminus: a fixed tail appended.
Take LREKLLEAEQSLRNLEDIHMSLDK [E23D]: the protein stability index was 2.27.

As to LREKLLEAEQSLRNLEDIHMSLIK [E23I], the protein stability index came to 1.88. Under LREKLLEAEQSLRNLEDIHMSLCK [E23C] stands 4.07; under LREKLLEAEQSLRNLEDIHMSLTK [E23T], 1.71. For LREKLLEAEQSLRNLEDIHMSLYK [E23Y], the protein stability index turned out to be 1.93.

For LREKLLEAEQSLRNLEDIHMSLLK [E23L], the protein stability index turned out to be 2.65. To LREKLLEAEQSLRNLEDIHMSLGK [E23G] belongs 1.58; to LREKLLEAEQSLRNLEDIHMSLVK [E23V], 2.07; to LREKLLEAEQSLRNLEDIHMSLAK [E23A], 3.45. To LREKLLEAEQSLRNLEDIHMSLFK [E23F] belongs 2.3; to LREKLLEAEQSLRNLEDIHMSLHK [E23H], 2.21; to LREKLLEAEQSLRNLEDIHMSLKK [E23K], 2.74. Regarding LREKLLEAEQSLRNLEDIHMSLSK [E23S], the protein stability index came out at 2.15. Turning to LREKLLEAEQSLRNLEDIHMSLNK [E23N], the protein stability index was determined as 1.47.

As to LREKLLEAEQSLRNLEDIHMSLRK [E23R], the protein stability index is 3.15. Consider LREKLLEAEQSLRNLEDIHMSLMK [E23M], for which the protein stability index stood at 2.39. To LREKLLEAEQSLRNLEDIHKSLEK [M20K] belongs 2.07; to LREKLLEAEQSLRNLEDIHYSLEK [M20Y], 3.15; to LREKLLEAEQSLRNLEDIHASLEK [M20A], 3.28. As to LREKLLEAEQSLRNLEDIHFSLEK [M20F], the protein stability index worked out at 1.72. Under LREKLLEAEQSLRNLEDIHGSLEK [M20G] stands 3.51; under LREKLLEAEQSLRNLEDIHWSLEK [M20W], 2.55. With LREKLLEAEQSLRNLEDIHESLEK [M20E], the protein stability index was determined as 2.17. To LREKLLEAEQSLRNLEDIHDSLEK [M20D] belongs 2.71; to LREKLLEAEQSLRNLEDIHTSLEK [M20T], 2.98; to LREKLLEAEQSLRNLEDIHQSLEK [M20Q], 1.79.

In the case of LREKLLEAEQSLRNLEDIHLSLEK [M20L], the protein stability index stood at 2.58. Under LREKLLEAEQSLRNLEDIHCSLEK [M20C] stands 3.03; under LREKLLEAEQSLRNLEDIHRSLEK [M20R], 2.36; under LREKLLEAEQSLRNLEDIHISLEK [M20I], 2.86. In the case of LREKLLEAEQSLRNLEDIHNSLEK [M20N], the protein stability index was determined as 2.25. With LREKLLEAEQSLRNLEDIRMSLEK [H19R], the protein stability index is 2.42. To LREKLLEAEQSLRNLEDINMSLEK [H19N] belongs 2.93; to LREKLLEAEQSLRNLEDISMSLEK [H19S], 3.43; to LREKLLEAEQSLRNLEDIDMSLEK [H19D], 3.48. Under LREKLLEAEQSLRNLEDITMSLEK [H19T] stands 2.63.

With LREKLLEAEQSLRNLEDIVMSLEK [H19V], the protein stability index is 2.51. To LREKLLEAEQSLRNLEDIEMSLEK [H19E] belongs 2.91; to LREKLLEAEQSLRNLEDIAMSLEK [H19A], 1.76. Consider LREKLLEAEQSLRNLEDIKMSLEK [H19K], for which the protein stability index amounted to 2.8. Take LREKLLEAEQSLRNLEDIGMSLEK [H19G]: the protein stability index was 2.02. As to LREKLLEAEQSLRNLEDILMSLEK [H19L], the protein stability index was determined as 1.96. To LREKLLEAEQSLRNLEDIFMSLEK [H19F] belongs 1.83. Under LREKLLEAEQSLRNLEDIQMSLEK [H19Q] stands 3.91.

As to LREKLLEAEQSLRNLEDIIMSLEK [H19I], the protein stability index came to 1.81. Under LREKLLEAEQSLRNLEDIPMSLEK [H19P] stands 3.26; under LREKLLEAEQSLRNLEDICMSLEK [H19C], 2.96; under LREKLLEAEQSLRNLEDIMMSLEK [H19M], 2.79. To LREKLLEAEQSLRNLEDIHMWLEK [S21W] belongs 2.38; to LREKLLEAEQSLRNLEDIHMLLEK [S21L], 1.59. Under LREKLLEAEQSLRNLEDIHMDLEK [S21D] stands 1.9; under LREKLLEAEQSLRNLEDIHMQLEK [S21Q], 1.92; under LREKLLEAEQSLRNLEDIHMNLEK [S21N], 2.6. As for LREKLLEAEQSLRNLEDIHMTLEK [S21T], the protein stability index stood at 2.81.

Turning to LREKLLEAEQSLRNLEDIHMFLEK [S21F], the protein stability index stood at 2.63. For LREKLLEAEQSLRNLEDIHMKLEK [S21K], the protein stability index was determined as 2.37. Under LREKLLEAEQSLRNLEDIHMCLEK [S21C] stands 1.56; under LREKLLEAEQSLRNLEDIHMELEK [S21E], 2.35; under LREKLLEAEQSLRNLEDIHMPLEK [S21P], 2.82.

As to LREKLLEAEQSLRNLEDIHMHLEK [S21H], the protein stability index worked out at 1.99. To LREKLLEAEQSLRNLEDIHMRLEK [S21R] belongs 3.24. For the variant LREKLLEAEQSLRNLEDIHMMLEK [S21M], the protein stability index came out at 1.75. Regarding LREKLLEAEQSLRNLEDIHMGLEK [S21G], the protein stability index turned out to be 3.25.

On to LREKLLEAEQSLRNLEDIHMVLEK [S21V], for which the protein stability index came out at 2.35.

Turning to LREKLLEAEQSLRNLADIHMSLEK [E16A], the protein stability index worked out at 1.41.

For the variant LREKLLEAEQSLRNLMDIHMSLEK [E16M], the protein stability index came out at 1.93. To LREKLLEAEQSLRNLGDIHMSLEK [E16G] belongs 2.37; to LREKLLEAEQSLRNLIDIHMSLEK [E16I], 2.7; to LREKLLEAEQSLRNLRDIHMSLEK [E16R], 2.12.

Consider LREKLLEAEQSLRNLNDIHMSLEK [E16N], for which the protein stability index is 1.94. As to LREKLLEAEQSLRNLQDIHMSLEK [E16Q], the protein stability index was determined as 2.15.

Take LREKLLEAEQSLRNLPDIHMSLEK [E16P]: the protein stability index stood at 2.71. Under LREKLLEAEQSLRNLSDIHMSLEK [E16S] stands 2.25; under LREKLLEAEQSLRNLCDIHMSLEK [E16C], 1.33; under LREKLLEAEQSLRNLHDIHMSLEK [E16H], 1.59. As for LREKLLEAEQSLRNLKDIHMSLEK [E16K], the protein stability index is 2.3. Consider LREKLLEAEQSLRNLTDIHMSLEK [E16T], for which the protein stability index was 2.21. To LREKLLEAEQSLRNLDDIHMSLEK [E16D] belongs 2.35; to LREKLLEAEQSLRNLLDIHMSLEK [E16L], 1.47; to LREKLLEAEQSLRNLVDIHMSLEK [E16V], 2.06. As to LREKLLEAEQSLRNLWDIHMSLEK [E16W], the protein stability index worked out at 1.18. To LREKLLEAEQSLRNLEFIHMSLEK [D17F] belongs 1.79; to LREKLLEAEQSLRNLEHIHMSLEK [D17H], 2.29; to LREKLLEAEQSLRNLENIHMSLEK [D17N], 1.62. In the case of LREKLLEAEQSLRNLESIHMSLEK [D17S], the protein stability index came out at 2.33. To LREKLLEAEQSLRNLEMIHMSLEK [D17M] belongs 2.42; to LREKLLEAEQSLRNLEKIHMSLEK [D17K], 2.32; to LREKLLEAEQSLRNLETIHMSLEK [D17T], 2.27. Take LREKLLEAEQSLRNLEAIHMSLEK [D17A]: the protein stability index was 2.31.

Take LREKLLEAEQSLRNLEYIHMSLEK [D17Y]: the protein stability index was 1.45.

Consider LREKLLEAEQSLRNLECIHMSLEK [D17C], for which the protein stability index is 2.46. LREKLLEAEQSLRNLEWIHMSLEK [D17W]: the protein stability index worked out at 1.76. To LREKLLEAEQSLRNLEPIHMSLEK [D17P] belongs 2.7; to LREKLLEAEQSLRNLEIIHMSLEK [D17I], 1.58.
